Data reported in US20250011397A1 (HOSPITAL FOR SICK CHILDREN, published 2025).
Changes are numbered by the printed parent chain. “And” between values parts separate entries of the source, which are not always exact repeats. Equal entries are not always repeated.

B1: MB 178 (other)
heavy: QVQLVQSGAEVKKPGASVKVSCKASGYTFTDYHMHWVRQAPGQGLEWMGWINPNSGGTNYAQKFQGRVTMTRDTSTSTVYMELSSLRSEDTAVYYCARDISSWYEITKFDPWGQGTLVTVSSASTKGPSVFPLAPSSKSTSGGTAALGCLVKDYFPEPVTVSWNSGALTSGVHTFPAVLQSSGLYSLSSVVTVPSSSLGTQTYICNVNHKPSNTKVDKKVEPKSC
light: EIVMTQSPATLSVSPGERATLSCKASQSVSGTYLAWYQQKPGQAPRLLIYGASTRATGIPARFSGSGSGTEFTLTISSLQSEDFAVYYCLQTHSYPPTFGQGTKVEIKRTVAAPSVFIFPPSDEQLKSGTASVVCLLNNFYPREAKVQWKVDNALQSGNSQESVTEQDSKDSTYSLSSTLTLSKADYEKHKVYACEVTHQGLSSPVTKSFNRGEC
B2: MB 120 (other)
heavy: QVQLVQSGAEVKKPGASVKVSCKASGYTFTSYDINWVRQAPGQGLEWMGMIDPSGGSTSYAQKFQGRVTMTRDTSTSTVYMELSSLRSEDTAVYYCAKDFGGGTRYDYWYFDLWGRGTLVTVSSASTKGPSVFPLAPSSKSTSGGTAALGCLVKDYFPEPVTVSWNSGALTSGVHTFPAVLQSSGLYSLSSVVTVPSSSLGTQTYICNVNHKPSNTKVDKKVEPKSC
light: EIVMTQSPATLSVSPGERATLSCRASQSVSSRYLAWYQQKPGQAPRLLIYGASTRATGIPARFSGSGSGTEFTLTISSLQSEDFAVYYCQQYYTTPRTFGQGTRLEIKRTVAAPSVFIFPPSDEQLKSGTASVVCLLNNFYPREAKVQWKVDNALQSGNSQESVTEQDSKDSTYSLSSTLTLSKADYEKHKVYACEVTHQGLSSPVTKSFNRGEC
B3: MB 349 (other)
heavy: EVQLLESGGGLVQPGGSLRLSCAASGFTFSNYGMHWVRQAPGKGLEWVSGISSAGSITNYADSVKGRFTISRDNSKNTLYLQMNSLRAEDTAVYYCAGNHAGTTVTSEYFQHWGQGTLVTVSSASTKGPSVFPLAPSSKSTSGGTAALGCLVKDYFPEPVTVSWNSGALTSGVHTFPAVLQSSGLYSLSSVVTVPSSSLGTQTYICNVNHKPSNTKVDKKVEPKSC
light: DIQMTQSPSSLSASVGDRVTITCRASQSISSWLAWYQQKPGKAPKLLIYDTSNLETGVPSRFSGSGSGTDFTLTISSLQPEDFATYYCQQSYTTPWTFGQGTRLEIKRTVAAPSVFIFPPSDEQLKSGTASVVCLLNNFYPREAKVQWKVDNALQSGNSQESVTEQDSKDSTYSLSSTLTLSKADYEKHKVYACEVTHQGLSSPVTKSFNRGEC
B4: MB 192 (other)
heavy: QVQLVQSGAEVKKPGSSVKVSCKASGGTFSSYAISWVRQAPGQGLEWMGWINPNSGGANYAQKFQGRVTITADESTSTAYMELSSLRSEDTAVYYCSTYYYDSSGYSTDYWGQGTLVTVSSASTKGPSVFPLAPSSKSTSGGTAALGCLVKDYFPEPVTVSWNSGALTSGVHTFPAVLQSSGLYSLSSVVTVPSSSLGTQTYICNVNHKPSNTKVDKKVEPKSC
light: DIVMTQSPLSLPVTPGEPASISCRSSQSLLHSNGYNYLDWYLQKPGQSPQLLIYAASSLQSGVPDRFSGSGSGTDFTLKISRVEAEDVGVYYCMQALQTPYTFGQGTKLEIKRTVAAPSVFIFPPSDEQLKSGTASVVCLLNNFYPREAKVQWKVDNALQSGNSQESVTEQDSKDSTYSLSSTLTLSKADYEKHKVYACEVTHQGLSSPVTKSFNRGEC
B5: MB 180 (other)
heavy: QVQLVQSGAEVKKPGSSVKVSCKASGYTFTSYAMHWVRQAPGQGLEWMGRISPRSGGTKYAQRFQGRVTITADESTSTAYMELSSLRSEDTAVYYCAREAVAGTHPQAGDFDLWGRGTLVTVSSASTKGPSVFPLAPSSKSTSGGTAALGCLVKDYFPEPVTVSWNSGALTSGVHTFPAVLQSSGLYSLSSVVTVPSSSLGTQTYICNVNHKPSNTKVDKKVEPKSC
light: B4 light with M94Q, A96Y, L97Y, Q98S, T99S
B6: MB 254 (other)
heavy: EVQLLESGGGLVQPGGSLRLSCAASGFTFSSSAMHWVRQAPGKGLEWVSAIGTGGDTYYADSVKGRFTISRDNSKNTLYLQMNSLRAEDTAVYYCAREGDGYNFYFDYWGQGTLVTVSSASTKGPSVFPLAPSSKSTSGGTAALGCLVKDYFPEPVTVSWNSGALTSGVHTFPAVLQSSGLYSLSSVVTVPSSSLGTQTYICNVNHKPSNTKVDKKVEPKSC
light: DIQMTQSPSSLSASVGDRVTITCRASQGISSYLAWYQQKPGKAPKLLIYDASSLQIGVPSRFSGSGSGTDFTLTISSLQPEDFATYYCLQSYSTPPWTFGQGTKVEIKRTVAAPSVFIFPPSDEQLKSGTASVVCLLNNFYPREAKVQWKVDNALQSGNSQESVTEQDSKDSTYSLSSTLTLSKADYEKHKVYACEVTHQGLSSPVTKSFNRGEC
B7: MB 158 (other)
heavy: QVQLVQSGAEVKKPGASVKVSCKASGYTFTGYYMHWVRQAPGQGLEWMGWINPLNGGTNFAPKFQGRVTMTRDTSTSTVYMELSSLRSEDTAVYYCARDPGGSYSNDAFDIWGQGTLVTVSSASTKGPSVFPLAPSSKSTSGGTAALGCLVKDYFPEPVTVSWNSGALTSGVHTFPAVLQSSGLYSLSSVVTVPSSSLGTQTYICNVNHKPSNTKVDKKVEPKSC
light: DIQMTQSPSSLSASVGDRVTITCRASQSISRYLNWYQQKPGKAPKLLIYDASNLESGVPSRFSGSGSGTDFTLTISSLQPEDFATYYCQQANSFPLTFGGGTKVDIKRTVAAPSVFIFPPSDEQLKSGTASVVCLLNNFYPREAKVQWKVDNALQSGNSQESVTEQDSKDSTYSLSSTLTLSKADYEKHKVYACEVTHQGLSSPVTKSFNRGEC
B8: mAb 178 (antibody, V domains shown)
VH: QVQLVQSGAEVKKPGASVKVSCKASGYTFTDYHMHWVRQAPGQGLEWMGWINPNSGGTNYAQKFQGRVTMTRDTSTSTVYMELSSLRSEDTAVYYCARDISSWYEITKFDPWGQGTLVTVSS
VL: EIVMTQSPATLSVSPGERATLSCKASQSVSGTYLAWYQQKPGQAPRLLIYGASTRATGIPARFSGSGSGTEFTLTISSLQSEDFAVYYCLQTHSYPPTFGQGTKVEIKR
notes: also called IgG 178
B9: mAb 368 (antibody, V domains shown)
VH: QVQLVQSGAEVKKPGSSVKVSCKASGYTFTSYDINWVRQAPGQGLEWMGAIMPMFGTANYAQKFQGRVTITADESTSTAYMELSSLRSEDTAVYYCARGSSGYYYGWGQGTLVTVSS
VL: not shown
B10: MB 108 (other)
heavy: QVQLVQSGAEVKKPGASVKVSCKASGYIFSRYAIHWVRQAPGQGLEWMGWMNPISGNTDYAPNFQGRVTMTRDTSTSTVYMELSSLRSEDTAVYYCAKDGSQLAYLVEYFQHWGQGTLVTVSSASTKGPSVFPLAPSSKSTSGGTAALGCLVKDYFPEPVTVSWNSGALTSGVHTFPAVLQSSGLYSLSSVVTVPSSSLGTQTYICNVNHKPSNTKVDKKVEPKSC
light: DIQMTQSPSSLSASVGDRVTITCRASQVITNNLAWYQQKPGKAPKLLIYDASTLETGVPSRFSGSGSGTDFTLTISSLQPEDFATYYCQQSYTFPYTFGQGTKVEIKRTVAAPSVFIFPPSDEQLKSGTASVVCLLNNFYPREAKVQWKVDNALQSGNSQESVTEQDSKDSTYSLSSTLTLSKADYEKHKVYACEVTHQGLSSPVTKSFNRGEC
B11: mAb 349 (antibody, V domains shown)
VH: EVQLLESGGGLVQPGGSLRLSCAASGFTFSNYGMHWVRQAPGKGLEWVSGISSAGSITNYADSVKGRFTISRDNSKNTLYLQMNSLRAEDTAVYYCAGNHAGTTVTSEYFQHWGQGTLVTVSS
VL: DIQMTQSPSSLSASVGDRVTITCRASQSISSWLAWYQQKPGKAPKLLIYDTSNLETGVPSRFSGSGSGTDFTLTISSLQPEDFATYYCQQSYTTPWTFGQGTRLEIKR
notes: also called IgG 349
B12: mAb 160 (antibody, V domains shown)
VH: QVQLVQSGAEVKKPGASVKVSCKASGYTFTGHDMHWVRQAPGQGLEWMGIINPSGGSTSYAQKFQGRVTMTRDTSTSTVYMELSSLRSEDTAVYYCARANSLRYYYGMDVWGQGTMVTVSS
VL: B11 VL with I29V, D50A, T51A, N53S, E55Q, T56S, S91G, W96Y, R103K
notes: also called IgG 160
B13: mAb 108 (antibody, V domains shown)
VH: QVQLVQSGAEVKKPGASVKVSCKASGYIFSRYAIHWVRQAPGQGLEWMGWMNPISGNTDYAPNFQGRVTMTRDTSTSTVYMELSSLRSEDTAVYYCAKDGSQLAYLVEYFQHWGQGTLVTVSS
VL: B11 VL with S28V, S30T, S31N, W32N, T51A, N53T, T94F, W96Y, R103K, L104V
B14: mAb 128 (antibody, V domains shown)
VH: QVQLVQSGAEVKKPGASVKVSCKASGYTFTHYYMHWVRQAPGQGLEWMGIINPSSSSASYSQKFQGRVTMTRDTSTSTVYMELSSLRSEDTAVYYCARDGRYGSGSYPFDYWGQGTLVTVSS
VL: DIQMTQSPSSLSASVGDRVTITCRASQNISRYLNWYQQKPGKAPKLLIYDASNLETGVPSRFSGSGSGTDFTLTISSLQPEDFATYYCQQANGFPPTFGQGTKLEIKR
B15: mAb 56 (antibody, V domains shown)
VH: QVQLVQSGAEVKKPGASVKVSCKASGYTFTSYGISWVRQAPGQGLEWMGWISAYNGNTNYAQKLQGRVTMTRDTSTSTVYMELSSLRSEDTAVYYCARDIGPIDYWGQGTLVTVSS
VL: B14 VL with N28G, R31S, N34A, E55Q, T56S, G93S, P96S, L104V
notes: also called IgG 56
B16: MB 128 (other)
heavy: QVQLVQSGAEVKKPGASVKVSCKASGYTFTHYYMHWVRQAPGQGLEWMGIINPSSSSASYSQKFQGRVTMTRDTSTSTVYMELSSLRSEDTAVYYCARDGRYGSGSYPFDYWGQGTLVTVSSASTKGPSVFPLAPSSKSTSGGTAALGCLVKDYFPEPVTVSWNSGALTSGVHTFPAVLQSSGLYSLSSVVTVPSSSLGTQTYICNVNHKPSNTKVDKKVEPKSC
light: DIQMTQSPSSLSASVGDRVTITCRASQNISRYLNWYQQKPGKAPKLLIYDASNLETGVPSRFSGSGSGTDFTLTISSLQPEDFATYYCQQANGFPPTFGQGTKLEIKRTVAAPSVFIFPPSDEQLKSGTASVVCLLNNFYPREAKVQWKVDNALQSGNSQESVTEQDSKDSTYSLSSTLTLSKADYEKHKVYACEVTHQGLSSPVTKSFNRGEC
B17: MB 160 (other)
heavy: QVQLVQSGAEVKKPGASVKVSCKASGYTFTGHDMHWVRQAPGQGLEWMGIINPSGGSTSYAQKFQGRVTMTRDTSTSTVYMELSSLRSEDTAVYYCARANSLRYYYGMDVWGQGTMVTVSSASTKGPSVFPLAPSSKSTSGGTAALGCLVKDYFPEPVTVSWNSGALTSGVHTFPAVLQSSGLYSLSSVVTVPSSSLGTQTYICNVNHKPSNTKVDKKVEPKSC
light: DIQMTQSPSSLSASVGDRVTITCRASQSVSSWLAWYQQKPGKAPKLLIYAASSLQSGVPSRFSGSGSGTDFTLTISSLQPEDFATYYCQQGYTTPYTFGQGTKLEIKRTVAAPSVFIFPPSDEQLKSGTASVVCLLNNFYPREAKVQWKVDNALQSGNSQESVTEQDSKDSTYSLSSTLTLSKADYEKHKVYACEVTHQGLSSPVTKSFNRGEC
B18: MB 56 (other)
heavy: QVQLVQSGAEVKKPGASVKVSCKASGYTFTSYGISWVRQAPGQGLEWMGWISAYNGNTNYAQKLQGRVTMTRDTSTSTVYMELSSLRSEDTAVYYCARDIGPIDYWGQGTLVTVSSASTKGPSVFPLAPSSKSTSGGTAALGCLVKDYFPEPVTVSWNSGALTSGVHTFPAVLQSSGLYSLSSVVTVPSSSLGTQTYICNVNHKPSNTKVDKKVEPKSC
light: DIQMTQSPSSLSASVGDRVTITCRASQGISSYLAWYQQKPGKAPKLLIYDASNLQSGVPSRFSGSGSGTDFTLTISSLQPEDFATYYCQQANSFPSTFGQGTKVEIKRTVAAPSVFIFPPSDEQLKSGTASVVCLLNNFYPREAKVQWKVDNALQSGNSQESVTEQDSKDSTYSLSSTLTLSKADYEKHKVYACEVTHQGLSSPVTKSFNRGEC

The binders below were run against T1, SARS-CoV-2 Spike on HIV-based pseudotyped virus (Spike plasmid BEI NR52310) (SARS-CoV-2, UniProt P0DTC2 14-1273) (assay: cell-based or functional assay).

Binder | Median IC50 (PsV neutralization)
B1 | 1.7 µg/mL and 0.74 nM
B2 | 7.2 µg/mL and 3.1 nM
B3 | > 50 µg/mL and > 0.33 µM
B4 | 0.79 µg/mL and 343 pM
B5 | 0.89 µg/mL and 387 pM
B6 | 9.3 µg/mL and 4 nM
B7 | 0.1 µg/mL and 43 pM
B8 | > 50 µg/mL and > 333 nM
B9 | > 50 µg/mL and > 333 nM
B10 | 0.37 µg/mL and 161 pM
B11 | > 50 µg/mL and > 333 nM
B12 | > 50 µg/mL and > 333 nM
B13 | > 50 µg/mL and > 333 nM
B14 | > 50 µg/mL and > 333 nM
B15 | > 50 µg/mL and > 333 nM
B16 | 1.5 nM and 3.5 µg/mL
B17 | 0.22 µg/mL and 96 pM
B18 | > 50 µg/mL and > 0.33 µM

Target: T1, SARS-CoV-2 Spike on HIV-based …
Assay: cell-based or functional assay
Remark: another data set of the same source

Binder | IC50 SARS-CoV2 PsV (µg/mL), MB [µg/mL] | IC50 SARS-CoV2 PsV (µg/mL), IgG [µg/mL]
B1 | 1.7 | 
B2 | 7.2 | 
B3 | > 50 | 
B4 | 0.79 | 
B5 | 0.89 | 
B6 | 9.3 | 
B7 | 0.1 | 
B8 |  | > 50
B9 |  | > 50
B10 | 0.37 | 
B11 |  | > 50
B12 |  | > 50
B13 |  | > 50
B14 |  | > 50
B15 |  | > 50
B16 | 3.5 | 
B17 | 0.22 | 
B18 | > 50 | 
